Measurements as given in US6462173B1, “Inhibitors of phosphoserine and phosphothreonine-proline-specific isomerases” (Max-Planck-Gesellschaft zur Forderung der, priority 1997, dated 2002).

Key:
AEPF-pNA = tested on: T1, AEPF-pNA
T1 sequence: AEPFNA

AAPF (peptide substrate) = tested on: T2, AAPF (peptide substrate)
T2 sequence: AAPF

mitotic GST-Cdc25 = molecular target: T3, mitotic GST-Cdc25 (Xenopus laevis, UniProt P30309); experiment: Cdc25 activity assay (activation of cyclin B/Cdc2, H1 kinase); type: biochemical; settings: 0.67 μM protein, 1 μM mitotic Cdc25
T3 construct: made in house
T3 sequence (P30309 1-550): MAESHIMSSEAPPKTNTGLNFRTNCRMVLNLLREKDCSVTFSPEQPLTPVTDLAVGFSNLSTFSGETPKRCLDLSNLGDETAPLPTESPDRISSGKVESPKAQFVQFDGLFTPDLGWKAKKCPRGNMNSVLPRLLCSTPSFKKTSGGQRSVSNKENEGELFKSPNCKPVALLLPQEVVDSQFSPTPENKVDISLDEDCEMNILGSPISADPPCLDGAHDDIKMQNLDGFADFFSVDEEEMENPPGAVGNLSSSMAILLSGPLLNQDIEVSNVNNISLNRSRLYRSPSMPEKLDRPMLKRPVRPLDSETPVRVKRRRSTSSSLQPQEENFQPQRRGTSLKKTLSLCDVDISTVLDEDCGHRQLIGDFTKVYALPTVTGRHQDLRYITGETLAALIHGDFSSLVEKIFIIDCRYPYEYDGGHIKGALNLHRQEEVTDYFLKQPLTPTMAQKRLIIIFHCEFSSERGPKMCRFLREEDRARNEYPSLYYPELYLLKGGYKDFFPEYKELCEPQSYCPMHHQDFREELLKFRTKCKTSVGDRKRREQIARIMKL
Description: Cdc2 was assayed using histone H1 as a substrate, as previously described in Murray, 1991; Lu and Hunter, (1995).
A subthreshold concentration of GST cyclin B (10 μg) was added to 1 ml of Xenopus interphase extract for thirty min at room temperature (Solomon, M. J., M. Glotzer, T. H. Lee, M. Philippe and M. W. Kirschner, Cell 63:1013-1024 (1990). This was diluted 8 fold in XB+3 mM DTT, rotated for 1 h with 3 ml of GST agarose beads, washed 3 times in XBIP (XB+500 mM NaCl and 1% NP40+2 mM DTT), washed 2 times (once overnight) in EB (80 mM β glycerol phosphate, 15 mM EGTA, 15 mM MgCl2)+2 mM DTT, 500 mM NaCl and 1% NP40, and finally twice with EB+10 mM DTT. These Cdc25 assay beads were stored at 4° C. for up to 1 month. Mitotic GST-Cdc25 was purified by incubating 22 μg of GST-Cdc25, in a Xenopus mitotic extract for 30 min at 23° C., this was diluted 8 fold in XB and rotated with 50 μl of glutathione-Agarose beads (Sigma) for 1 hr at 4° C. The beads were washed 5 times in XB-IP, twice in XB+2 mM DTT and eluted in 25 μl XB+2 mM reduced GSH. The final concentration of Mitotic GST-Cdc25 was 0.36 mg/ml. […] Phosphoimager analysis of the H1 kinase assays were quantified by the Molecular Dynamics ImageQuant 3.3 software. […] The most reproducible way to quantify the Cdc25 activity in this assay was by determining the endpoint dilution of Cdc25 which could activate Cdc2. […]

MPM-2 antigens = experiment: GST-Pin1 pull-down / depletion of MPM-2 antigens from HeLa cell extracts, MPM-2 immunoblotting; type: binding, human; settings: mitotic HeLa cell extracts, GST fusion proteins
Description: (§1) To detect Pin1-binding proteins, either HeLa cells were lysed in or Xenopus extracts were diluted in a buffer (buffer A) containing 50 mM Tris-HCl, pH 8.0, 200 mM NaCl, 100 mM NaF, 1 mM sodium orthovanadate, 10% glycerol, 1% Triton X100, 10 μg/ml aprotinin, 50 μg/ml phenylmethylsulfonyl fluoride and 1 mM DTT. The lysates were preclarified with boiled S. aureus bacteria (CalBiochem) and then incubated with 10 μl of agarose beads containing various GST-Pin1 proteins or control GST for 2 h at 4° C. The precipitated proteins were washed 5 times in the same buffer and subjected to immunoblotting analysis. Immunoprecipitation and immunoblotting analysis using MPM-2 antibody (Davis et al. 1983), which was kindly provided by J. Kuang, Pin1 antibodies (Lu et al., 1996, kindly provided by M. White or newly generated), anti-phospho.Tyr antibody (UBI), anti-Cdc25C (Ogg, et al., 1994) (from H. Piwnica-Worms and Santa Cruz Biotechnology), anti-Cdc27, anti-Plk1 (Zymed), anti-Cdc2 (Solomon, M. J., M. Glotzer, T. H. Lee, M. Philippe and M. W. Kirschner. Cell 63:1013-1024 (1991), anti-human Myt1, anti-human cyclin B1 and anti-Xenopus cyclin B were performed, as described previously in Lu and Hunter, 1995; Lu et al., 1996).
To determine whether GST-Pin1 can deplete MPM-2 antigens and to estimate what concentrations of Pin1 are required to completely deplete MPM-2 antigens, mitotic extracts were incubated with different amounts of GST-Pin1, followed by analyzing MPM-2 antigens remaining in the depleted supernatants. The total cellular Pin1 concentration in HeLa cells was estimated to be about 0.5 μM, based on immunoblotting analysis using anti-Pin1 antibodies with recombinant Pin1 protein as a standard.
To determine if the Pin1 mutants interact with mitotic phosphoproteins, GST-Pin1, -Pin1^R68,69A and -Pin1^H59A fusion proteins were incubated with interphase or mitotic HeLa cell extracts and associated proteins subjected to MPM-2 immunoblotting analysis. […] A few proteins including the most strongly reacting p55 band could still be recognized. […] Thus, mutating the residues that are implicated in binding either the substrate's putative phosphate group or the substrate's Pro residue abolish the ability of Pin1 to bind MPM-2 antigens.

Cdc25, Cdc27 = experiment: Binding of GST-Pin1 mutants to Cdc25 or Cdc27
Description: as §1
Several known mitotic regulators such as cyclin B, Cdc25, Myt1, Plk1 and Cdc27 are phosphorylated at mitosis. […]

[1] = tested on: phosphorylated and unphosphorylated peptide substrates; AEPF, AAPF; experiment: PPIase activity of site-directed Pin1 mutants and parvulin; type: biochemical
Description: To test these predictions from the model, site-directed Pin1 mutants were generated and their PPIase activity assayed as described herein and in K. P. Lu, S. D. Hanes, T. Hunter, Nature 380:544 (1996); K. P. Lu and T. Hunter, Cell 81:413 (1995).
Site-directed mutations of Pin1 were introduced using PCR-based techniques and verified by DNA sequencing. The corresponding mutant proteins were expressed and purified using the same procedures as those described for wild-type Pin1. PPIase activity was measured, as described previously (Lu et al., 1996), with the exception that the absorbance of p-nitroaniline (at 395 nM) was followed every second for 2-10 min. and data were analyzed offline using a kinetic computer program written by G. Tucker-Kellogg in the C.

Molecule: GST-Pin1^H59A
- PPIase activity (AEPF-pNA): The PPIase activity of Pin1^H59A was barely detectable against either peptide substrate
- PPIase activity (AAPF (peptide substrate)): The PPIase activity of Pin1^H59A was barely detectable against either peptide substrate

Molecule: Pin1^R68,69A: Pin1 mutant with Ala substitutions at Arg68 and Arg69
- effect on Cdc25 activity (mitotic GST-Cdc25): neither the mutant Pin1^R68,69A at the same concentration (0.67 μM), or BSA at a 25 fold higher concentration (15 μM) had a significant inhibitory effect on Cdc25 activity
- binding of MPM-2 antigens (MPM-2 antigens): significantly reduced compared to the wild-type protein
- interaction with Cdc25 or Cdc27 (Cdc25, Cdc27): neither mutant Pin1^R68,69A nor Pin1^H59A interacted with Cdc25 or Cdc27

B1: Parvulin: prototype of the Pin1 family of PPIases, R68 and R69 replaced by Glu (protein, UniProt P0A9L5 2-93, looked up)
Peptidyl-prolyl cis-trans …: AKTAAALHILVKEEKLALDLLEQIKNGADFGKLAKKHSICPSGKRGGDLGEFRQGQMVPAFDKVVFSCPVLEPTGPLHTQFGYHIIKVLYRN
- isomerization of pS-P peptidyl bonds ([1]; phosphorylated peptide): failed to catalyze the isomerization of pS-P peptidyl bonds
- catalytic activity for the unphosphorylated peptide substrate ([1]; unphosphorylated peptide): very effective in catalyzing the P isomerization of the unphosphorylated peptide
